# Laboratory results taken from patent US20220110894A1 (ACCUBIT LLC BIOTECHNOLOGY, published 2022).
# What was measured:
# [1] = target: the molecule itself; test: SEC, self-association into poly-rIgA1
# [2] = target: the molecule itself; test: SEC, non-reducing SDS-PAGE and TEM; self-association of rIgA duplexes into poly-rIgA
# Procedure: Before running on SEC, samples were treated with the drugs at indicated concentrations at 37° C. for one hour.
# (§1) In the meantime, the SEC column was also equilibrated with PBS supplemented with the reducing agent at the same concentration. For running SEC, 100 μL of the recombinant IgA (concentration varies between 1 mg/mL and 8 mg/mL) or purified native human IgA1 (˜1 mg/mL) was loaded to the column and UV absorption was recorded following elution. Recombinant IgA typically formed two elution peaks: a minor peak of ˜800 kDa poly-rIgA followed by a major peak of ˜170 kDa of monomeric rIgA. The ratios between poly-rIgA and mono-rIgA were calculated as between the corresponding areas under the curve (AUC), and the treatment effect of the thiol agents was judged by the reduction of the poly-rIgA level with a compensatory increase of the mono-rIgA content.
# To further investigate specific cysteine residue(s) involved in IgA complexes, expression vectors were constructed to produce recombinant IgA (rIgA) Fc segments of rat and human sequences (FIG. 2, part A) as discussed above. Rat IgA analogs were expressed in BL21 DE3 strain of E. coil and recombinant protein were purified from the bacterial lysate using Histrap HP columns (GE Healthcare) by running fast protein liquid chromatography (FPLC). […]
# [3] = target: the molecule itself; test: SEC, self-association into poly-rIgA
# Procedure: as §1
# Considering that the fragment contained Cys311 and Cys471 that, in the absence of J-chain and SC, were in their free forms and available for connecting other rIgA units, mutagenesis studies were conducted of these two cysteines. Cys311 and Cys471 were either individually, or together, mutated to serine (S) as discussed above. […] By examining the SEC traces of these mutants, it was noticed that, while the monomers of all variants appeared the same, there were dramatic differences in the poly-rIgA contents. […] Meanwhile, C311S-alone still had poly-rIgA contents, albeit eluted at a different time in SEC than the wild-type protein (FIG. 3, part F). […]
protein,measurement,setting,value
"human rIgA1-Fc (human IgA1-Fc CH2-CH3-TP) (other, Produced in HEK293 cells, secreted; also called hu-rIgA; wild-type rIgA1; not shown: 6xHis-tag at the N-terminus after the IL-2 signal peptide (secreted)) SCCHPRLSLHRPALEDLLLGSEANLTCTLTGLRDASGVTFTWTPSSGKSAVQGPPERDLCGCYSVSSVLPGCAEPWNHGKTFTCTAAYPESKTPLTATLSKSGNTFRPEVHLLPPPSEELALNELVTLTCLARGFSPKDVLVRWLQGSQELPREKYLTWASRQEPSQGTTTFAVTSILRVAAEDWKKGDTFSCMVGHEALPLAFTQKTIDRLAGKPTHVNVSVVMAEVDGTCY",binding result,[1],binds
"wild-type rat IgA-Fc segment of CH2-CH3-TP (recombinant rat rIgA) (other, Expressed in E. coli BL21 DE3; Two chains form a duplex called mono-rIgA; poly-rIgA is its disulfide-linked self-aggregate; also called mono-rIgA; poly-rIgA; not shown: N-terminal 6xHis-tag from the PET30a vector) SCSLVCRPRLSLQRPALEDLLLGSEASLTCTLRGLKEPTGAVFTWQPTTGKDAVQKEAVQDSCGCYTVSSVLPGCAERWNNGETFTCTATHPEFETPLTGEIAKVTENTFPPQVHLLPPPSEELALNELVSLTCLVRGFNPKDVLVRWLQGNEELPSESYLVFEPLREPGEGAITYLVTSVLRVSAETWKQGAQYSCMVGHEALPMSFTQKTIDRLSGKPTNVNVSVIMSEGDGICY",binding result,[2],binds
"rat rIgA C311S single mutant (other, also called C311S-alone; not shown: N-terminal 6xHis-tag from the PET30a vector) SCSLVCRPRLSLQRPALEDLLLGSEASLTCTLRGLKEPTGAVFTWQPTTGKDAVQKEAVQDSCGCYTVSSVLPGSAERWNNGETFTCTATHPEFETPLTGEIAKVTENTFPPQVHLLPPPSEELALNELVSLTCLVRGFNPKDVLVRWLQGNEELPSESYLVFEPLREPGEGAITYLVTSVLRVSAETWKQGAQYSCMVGHEALPMSFTQKTIDRLSGKPTNVNVSVIMSEGDGICY",binding result,[3],binds
